Measured values from patent US20200317768A1 (published 2020).
Residue numbers refer to the chain shown, from its start. Names may count otherwise.

T1: human FcγRIIaH extracellular domain, C-terminal His-tag (human, UniProt P12318 34-217)
T1 construct: also called human FcγRIIa (type H); FcgRIIaH; not shown: His-tag added to C-terminus
T1 sequence: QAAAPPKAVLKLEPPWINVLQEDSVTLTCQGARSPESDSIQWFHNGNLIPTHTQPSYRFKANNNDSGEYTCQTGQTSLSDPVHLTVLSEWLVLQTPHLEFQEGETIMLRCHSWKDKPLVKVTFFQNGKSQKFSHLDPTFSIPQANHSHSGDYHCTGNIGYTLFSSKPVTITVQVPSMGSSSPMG

T2: cynomolgus monkey FcγRIIa1 extracellular domain, C-terminal His-tag (cynomolgus monkey)
T2 construct: also called cyno FcγRIIa1; cynoFcgRIIa1; not shown: His-tag added to C-terminus
T2 chain: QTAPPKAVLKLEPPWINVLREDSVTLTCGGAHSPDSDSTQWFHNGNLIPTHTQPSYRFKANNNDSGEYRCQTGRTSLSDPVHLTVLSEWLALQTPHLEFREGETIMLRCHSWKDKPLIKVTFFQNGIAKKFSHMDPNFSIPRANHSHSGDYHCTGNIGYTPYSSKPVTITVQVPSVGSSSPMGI

T3: cynomolgus monkey FcγRIIb extracellular domain, C-terminal His-tag (cynomolgus monkey)
T3 construct: also called cyno FcγRIIb; cynoFcγRIIb; not shown: His-tag added to C-terminus
T3 chain: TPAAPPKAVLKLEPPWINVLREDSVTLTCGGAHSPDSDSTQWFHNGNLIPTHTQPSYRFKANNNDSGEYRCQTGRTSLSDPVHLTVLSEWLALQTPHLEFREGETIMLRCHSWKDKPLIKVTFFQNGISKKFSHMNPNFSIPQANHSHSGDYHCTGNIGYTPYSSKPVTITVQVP

B1: M103205H795-MY351 / M103202L889-SK1 (antibody, human IgG1, kappa)
heavy: QVTLKESGPVLVKPTETLTLTCTVSGIDLSHDDISWVRQAPGKGLEWVGIISYAGSTYYASWAKGRLTISKDTSKNQVVLTMTNMDPVDTATYYCARGVPAYSHGGDLWGQGTLVTVSSASTKGPSVFPLAPSSKSTSGGTAALGCLVKDYFPEPVTVSWNSGALTSGVHTFPAVLQSSGLYSLSSVVTVPSSSLGTQTYICNVNHKPSNTKVDKKVEPKSCDKTHTCPPCPAPELLNGPSVFLFPPKPKDTLMISRTPEVTCVVVDVSDEDPEVKFNWYVDGVEVHNAKTKPREEQYNSTYRVVSVLTVLHRDWLNGKEYKCKVSNKALPKPIEKTISKAKGQPREPQVYTLPPSREEMTKNQVSLTCLVKGFYPSDIAVEWESNGQPENNYKTTPPVLDSDGSFFLYSKLTVKKSRWQQGNVFSCSVMHEALHNHYTQKSLSLSP
light: DIVMTQSPATLSLSPGERATLSCTSSQSVYHANWLSWFQQKPGQPPKLLIYWASTLAYGVPSRFSGSGSGTDFTLTISSLQPEDAATYYCAGGYGGGRYAFGQGTKVEIKRTVAAPSVFIFPPSDEQLKSGTASVVCLLNNFYPREAKVQWKVDNALQSGNSQESVTEQDSKDSTYSLSSTLTLSKADYEKHKVYACEVTHQGLSSPVTKSFNRGEC
notes: CH with G236N/H268D/Q311R/A330K/D413K against SG1 (EU numbering); also called MS1032LO06-MY351
B2: M103205H795-PK2 / M103202L889-SK1 (antibody, human IgG1, kappa)
heavy: B1 heavy with D270E, R313Q, P398M, S402R
light: B1 light
notes: CH with G236N/H268E/A330K/P396M/S400R/D413K against SG1 (EU numbering); also called MS1032LO06-PK2; MS103205H795-PK2

Experiments:
Assay in all cases: SPR (BIACORE); KD of SG1 / KD of variant;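 further: relative to parent M103205H795-SG1 carrying the SG1 human heavy chain constant region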
[1] = biological target: T4, human FcγRIIIaV extracellular domain, C-terminal His-tag (human, UniProt P08637 17-208)
T4 construct: also called FcgRIIIaV; not shown: His-tag added to C-terminus

[2] = biological target: T1, human FcγRIIaH extracellular domain, …
[3] = biological target: T2, cynomolgus monkey FcγRIIa1 …
[4] = biological target: T3, cynomolgus monkey FcγRIIb extracellular …

T4 sequence (P08637 17-208 F176V): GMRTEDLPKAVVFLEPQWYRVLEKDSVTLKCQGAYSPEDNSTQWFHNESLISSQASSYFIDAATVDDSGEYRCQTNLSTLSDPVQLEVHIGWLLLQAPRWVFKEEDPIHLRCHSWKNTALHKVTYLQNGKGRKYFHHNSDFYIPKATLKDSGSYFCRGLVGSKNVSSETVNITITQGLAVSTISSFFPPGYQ

| KD fold (SG1 = 1) [1] [fold] | KD fold (SG1 = 1) [2] [fold] | KD fold (SG1 = 1) [3] [fold] | KD fold (SG1 = 1) [4] [fold] | Binder |
| --- | --- | --- | --- | --- |
| 0.06 | 0.7 | 3.5 | 5.1 | B1 |
| 0.06 | 1.2 | 2.5 | 4.7 | B2 |
